Reference: publication PMC3369482 (Biochemical Journal, 2012)
Read-outs that look alike come from different tables or passages of the source.

T1: Recombinant human ADAMTS-5 (adamalysin with thrombospondin motifs 5), full-length (human, UniProt Q9UNA0 262-930)
T1 sequence (looked up): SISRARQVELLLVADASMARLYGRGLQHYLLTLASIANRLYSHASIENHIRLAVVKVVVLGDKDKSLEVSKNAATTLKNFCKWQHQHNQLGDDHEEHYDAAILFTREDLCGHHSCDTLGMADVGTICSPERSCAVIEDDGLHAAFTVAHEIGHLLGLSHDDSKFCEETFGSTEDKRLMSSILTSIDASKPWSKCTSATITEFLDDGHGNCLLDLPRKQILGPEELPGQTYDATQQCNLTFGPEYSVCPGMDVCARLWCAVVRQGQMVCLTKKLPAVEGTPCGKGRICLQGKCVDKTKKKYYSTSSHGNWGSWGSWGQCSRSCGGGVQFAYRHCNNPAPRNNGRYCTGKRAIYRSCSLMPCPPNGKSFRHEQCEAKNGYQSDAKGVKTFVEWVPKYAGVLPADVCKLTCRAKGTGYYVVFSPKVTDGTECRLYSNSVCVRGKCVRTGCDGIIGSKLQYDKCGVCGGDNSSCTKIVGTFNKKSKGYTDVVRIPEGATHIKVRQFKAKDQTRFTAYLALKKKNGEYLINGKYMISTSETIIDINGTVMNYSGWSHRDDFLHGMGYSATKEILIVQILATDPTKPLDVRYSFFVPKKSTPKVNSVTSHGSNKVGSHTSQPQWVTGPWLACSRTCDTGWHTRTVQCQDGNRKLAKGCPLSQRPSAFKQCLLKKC

T2: ADAMTS5-2 (ADAMTS-5 lacking the C-terminal TS-2 domain) (human, UniProt Q9UNA0 262-874)
T2 sequence (looked up): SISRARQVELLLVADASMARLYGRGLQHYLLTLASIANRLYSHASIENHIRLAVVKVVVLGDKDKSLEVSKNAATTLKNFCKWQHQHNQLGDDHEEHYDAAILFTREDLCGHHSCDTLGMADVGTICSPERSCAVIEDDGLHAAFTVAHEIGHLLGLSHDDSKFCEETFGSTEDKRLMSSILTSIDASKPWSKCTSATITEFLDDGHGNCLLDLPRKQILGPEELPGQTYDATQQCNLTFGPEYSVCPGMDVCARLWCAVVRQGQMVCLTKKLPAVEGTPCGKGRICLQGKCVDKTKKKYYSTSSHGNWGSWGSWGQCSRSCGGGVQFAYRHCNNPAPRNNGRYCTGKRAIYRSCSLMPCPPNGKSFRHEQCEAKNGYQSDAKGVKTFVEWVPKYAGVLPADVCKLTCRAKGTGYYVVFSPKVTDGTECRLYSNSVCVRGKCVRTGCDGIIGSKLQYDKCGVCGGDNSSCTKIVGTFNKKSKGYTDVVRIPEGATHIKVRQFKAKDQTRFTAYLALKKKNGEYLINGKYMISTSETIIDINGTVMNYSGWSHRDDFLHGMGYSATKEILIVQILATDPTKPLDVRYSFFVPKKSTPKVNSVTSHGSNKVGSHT

T3: MMP-2 (UniProt P08253 110-660)
T3 sequence (looked up): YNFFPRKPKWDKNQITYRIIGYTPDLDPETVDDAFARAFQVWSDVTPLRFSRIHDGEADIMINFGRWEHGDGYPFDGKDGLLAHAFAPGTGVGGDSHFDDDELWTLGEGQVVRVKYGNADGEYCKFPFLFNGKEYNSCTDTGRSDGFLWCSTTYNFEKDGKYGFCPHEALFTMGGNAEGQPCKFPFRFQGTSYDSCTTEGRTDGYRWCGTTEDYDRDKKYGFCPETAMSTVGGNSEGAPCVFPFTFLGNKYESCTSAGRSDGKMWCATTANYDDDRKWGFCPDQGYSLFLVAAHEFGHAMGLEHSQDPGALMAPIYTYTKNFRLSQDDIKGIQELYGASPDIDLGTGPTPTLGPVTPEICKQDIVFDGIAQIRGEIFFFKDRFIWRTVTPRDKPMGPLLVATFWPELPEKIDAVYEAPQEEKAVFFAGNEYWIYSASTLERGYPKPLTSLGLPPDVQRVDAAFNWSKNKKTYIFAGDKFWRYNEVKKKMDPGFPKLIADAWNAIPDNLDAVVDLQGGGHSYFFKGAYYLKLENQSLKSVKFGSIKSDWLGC

T4: MMP (matrix metalloproteinase)-1 catalytic domain (UniProt P03956 100-269)
T4 sequence (looked up): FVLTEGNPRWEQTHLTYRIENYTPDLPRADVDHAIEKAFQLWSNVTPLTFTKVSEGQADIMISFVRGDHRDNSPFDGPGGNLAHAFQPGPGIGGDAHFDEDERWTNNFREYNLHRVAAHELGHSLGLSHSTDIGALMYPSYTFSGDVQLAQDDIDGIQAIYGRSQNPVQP


Assays:
Test in all cases: enzyme inhibition kinetics
[1] = molecular target: T1, Recombinant human ADAMTS-5 (adamalysin …)
[2] = molecular target: T1, Recombinant human ADAMTS-5 (adamalysin …); remark: listed apart in the source
[3] = molecular target: T2, ADAMTS5-2 (ADAMTS-5 lacking the …)
[4] = molecular target: T3, MMP-2
[5] = molecular target: MMP-3 catalytic domain (UniProt P08254 100-272)
[6] = molecular target: T4, MMP (matrix metalloproteinase)-1 …

Chain of MMP-3 catalytic domain (P08254 100-272): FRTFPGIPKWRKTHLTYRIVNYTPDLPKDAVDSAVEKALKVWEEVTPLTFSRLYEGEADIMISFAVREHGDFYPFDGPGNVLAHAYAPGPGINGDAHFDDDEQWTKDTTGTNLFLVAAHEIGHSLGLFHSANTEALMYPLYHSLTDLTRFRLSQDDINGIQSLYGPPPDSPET

Ki [1] [nM]	Ki [2] [nM]	Ki [3] [nM]	Ki [4] [nM]	Ki [5] [nM]	Ki [6] [nM]	Binder
734 ± 0.16	522 ± 0.24					TIMP-1 (tissue inhibitor of metalloproteinases 1) (natural protein) not shown
		1.34 ± 0.04				TIMP-3(K26/27/30/76E+R163/K165Q) (natural protein, human, UniProt P35625 24-211, looked up) CTCSPSHPQDAFCNSDIVIRAKVVGEELVEEGPFGTLVYTIKQMKMYRGFTKMPHVQYIHTEASESLCGLKLEVNEYQYLLTGRVYDGKMYTGLCNFVERWDQLTLSQRKGLNYRYHLGCNCKIKSCYYLPCFVTSKNECLWTDMLSNFGYPGYQSKHYACIQQQGGYCSWYRGWAPPDKSIINATDP
0.56 ± 0.03			0.16 ± 0.002	0.9 ± 0.28	0.43 ± 0.12	Recombinant human TIMP-3 (tissue inhibitor of metalloproteinases 3) (natural protein, UniProt P35625 24-211, looked up) CTCSPSHPQDAFCNSDIVIRAKVVGKKLVKEGPFGTLVYTIKQMKMYRGFTKMPHVQYIHTEASESLCGLKLEVNKYQYLLTGRVYDGKMYTGLCNFVERWDQLTLSQRKGLNYRYHLGCNCKIKSCYYLPCFVTSKNECLWTDMLSNFGYPGYQSKHYACIRQKGGYCSWYRGWAPPDKSIINATDP
